Results taken from the supplement of paper PMC5998384.

What was measured:
HeLa Kyoto [1] = assay: solubility change mitosis vs G1/S (difference of NP-40 vs SDS log2 ratios) (log2 ratio difference); higher = more soluble in mitosis
HeLa Kyoto [2] = assay: solubility in G1/S (NP-40 vs SDS abundance) (log2 ratio); higher = more soluble; conditions: cell cycle stage: G1/S
HeLa Kyoto [3] = assay: thermal stability score vs G1/S (z-score of summed log2 fold changes over temperatures); higher = more thermally stable than in G1/S
HeLa Kyoto [4] = assay: melting temperature (median over replicates), in situ; higher = more thermally stable
[5] = cell cycle stage: early G1 (4.5 h after nocodazole release)
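For melting temperature (median over replicates), in situ in this document: HeLa Kyoto cells synchronized by double thymidine or nocodazole block, proteins quantified by TMT10plex mass spectrometry, three independent biological replicates.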
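For solubility change mitosis vs G1/S (difference of NP-40 vs SDS log2 ratios) in this document: synchronized HeLa Kyoto cells (double thymidine block for G1/S, nocodazole release for mitosis), protein amounts in NP-40 versus SDS lysates quantified by mass spectrometry, three biological replicates.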
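For solubility in G1/S (NP-40 vs SDS abundance) in this document: HeLa Kyoto cells arrested at G1/S by double thymidine block, proteins quantified by TMT10plex mass spectrometry in mild NP-40 versus SDS extracts, three biological replicates.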
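For thermal stability score vs G1/S (z-score of summed log2 fold changes over temperatures) in this document: synchronized HeLa Kyoto cells, proteins quantified by TMT10plex mass spectrometry, three biological replicates, mitosis taken 0.5 h after nocodazole release, G1/S directly after double thymidine block.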

| Substance | solubility change mitosis (log2) (HeLa Kyoto [1]) | solubility in G1/S (log2) (HeLa Kyoto [2]) | thermal stability score (HeLa Kyoto [3]; [5]) | thermal stability score (HeLa Kyoto [3]; cell cycle stage: mitosis) | melting temperature (HeLa Kyoto [4]; cell cycle stage: G1/S) [°C] | melting temperature (HeLa Kyoto [4]; cell cycle stage: mitosis) [°C] |
| --- | --- | --- | --- | --- | --- | --- |
| MPVFHTRTIESILEPVAQQISHLVIMHEEGEVDGKAIPDLTAPVAAVQAAVSNLVRVGKETVQTTEDQILKRDMPPAFIKVENACTKLVQAAQMLQSDPYSVPARDYLIDGSRGILSGTSDLLLTFDEAEVRKIIRVCKGILEYLTVAEVVETMEDLVTYTKNLGPGMTKMAKMIDERQQELTHQEHRVMLVNSMNTVKELLPVLISAMKIFVTTKNSKNQGIEEALKNRNFTVEKMSAEINEIIRVLQLTSWDEDAWASKDTEAMKRALASIDSKLNQAKGWLRDPSASPGDAGEQAIRQILDEAGKVGELCAGKERREILGTCKMLGQMTDQVADLRARGQGSSPVAMQKAQQVSQGLDVLTAKVENAARKLEAMTNSKQSIAKKIDAAQNWLADPNGGPEGEEQIRGALAEARKIAELCDDPKERDDILRSLGEISALTSKLADLRRQGKGDSPEARALAKQVATALQNLQTKTNRAVANSRPAKAAVHLEGKIEQAQRWIDNPTVDDRGVGQAAIRGLVAEGHRLANVMMGPYRQDLLAKCDRVDQLTAQLADLAARGEGESPQARALASQLQDSLKDLKARMQEAMTQEVSDVFSDTTTPIKLLAVAATAPPDAPNREEVFDERAANFENHSGKLGATAEKAAAVGTANKSTVEGIQASVKTARELTPQVVSAARILLRNPGNQAAYEHFETMKNQWIDNVEKMTGLVDEAIDTKSLLDASEEAIKKDLDKCKVAMANIQPQMLVAGATSIARRANRILLVAKREVENSEDPKFREAVKAASDELSKTISPMVMDAKAVAGNISDPGLQKSFLDSGYRILGAVAKVREAFQPQEPDFPPPPPDLEQLRLTDELAPPKPPLPEGEVPPPRPPPPEEKDEEFPEQKAGEVINQPMMMAARQLHDEARKWSSKPGIPAAEVGIGVVAEADAADAAGFPVPPDMEDDYEPELLLMPSNQPVNQPILAAAQSLHREATKWSSKGNDIIAAAKRMALLMAEMSRLVRGGSGTKRALIQCAKDIAKASDEVTRLAKEVAKQCTDKRIRTNLLQVCERIPTISTQLKILSTVKATMLGRTNISDEESEQATEMLVHNAQNLMQSVKETVREAEAASIKIRTDAGFTLRWVRKTPWYQ [VCL] | -0.0931 | 0.182 | -1.64 | -1.78 | 56.4 | 55.4 |
| ASAP1 | -0.0861 | 0.0639 | 0.472 | 0.143 | 50.5 | 51.1 |
| RALGAPB | -0.169 | -0.0337 | -1.55 | -1.73 | 50.2 | 51 |
| MAECGRGGAAGGALPTSPGPALGAKGALKAGVGEGGGGGGRLGHGRARYDSGGVSNGDCSLGVSGDEARASPTRGPRGVALAPTPSAVVCTLPRESKPGGLPRRSSIIKDGTKQKRERKKTVSFSSMPTEKKISSASDCINSMVEGSELKKVRSNSRIYHRYFLLDADMQSLRWEPSKKDSEKAKIDIKSIKEVRTGKNTDIFRSNGISDQISEDCAFSVIYGENYESLDLVANSADVANIWVTGLRYLISYGKHTLDMLESSQDNMRTSWVSQMFSEIDVDNLGHITLCNAVQCIRNLNPGLKTSKIELKFKELHKSKDKAGTEVTKEEFIEVFHELCTRPEIYFLLVQFSSNKEFLDTKDLMMFLEAEQGVAHINEEISLEIIHKYEPSKEGQEKGWLSIDGFTNYLMSPDCYIFDPEHKKVCQDMKQPLSHYFINSSHNTYLIEDQFRGPSDITGYIRALKMGCRSVELDVWDGPDNEPVIYTGHTMTSQIVFRSVIDIINKYAFFASEYPLILCLENHCSIKQQKVMVQHMKKLLGDKLYTTSPNVEESYLPSPDVLKGKILIKAKKLSSNCSGVEGDVTDEDEGAEMSQRMGKENMEQPNNVPVKRFQLCKELSELVSICKSVQFKEFQVSFQVQKYWEVCSFNEVLASKYANENPGDFVNYNKRFLARVFPSPMRIDSSNMNPQDFWKCGCQIVAMNFQTPGLMMDLNIGWFRQNGNCGYVLRPAIMREEVSFFSANTKDSVPGVSPQLLHIKIISGQNFPKPKGSGAKGDVVDPYVYVEIHGIPADCAEQRTKTVHQNGDAPIFDESFEFQINLPELAMVRFVVLDDDYIGDEFIGQYTIPFECLQTGYRHVPLQSLTGEVLAHASLFVHVAITNRRGGGKPHKRGLSVRKGKKSREYASLRTLWIKTVDEVFKNAQPPIRDATDLRENMQNAVVSFKELCGLSSVANLMQCMLAVSPRFLGPDNTPLVVLNLSEQYPTMELQGIVPEVLKKIVTTYDMMIQSLKALIENADAVYEKIVHCQKAAMEFHEHLHSIGTKEGLKERKLQKAVESFTWNITILKGQADLLKYAKNETLENLKQIHFAAVSCGLNKPGTENADVQKPRRSLEVIPEKANDETGE [PLCL2] | -0.105 | -0.0622 | -0.0105 | -0.32 | 50.4 | 50.2 |
| MRVAVAGCCHGELDKIYETLALAERRGPGPVDLLLCCGDFQAVRNEADLRCMAVPPKYRHMQTFYRYYSGEKKAPVLTLFIGGNHEASNHLQELPYGGWVAPNIYYLGLAGVVKYRGVRIGGISGIFKSHDYRKGHFECPPYNSSTIRSIYHVRNIEVYKLKQLKQPIDIFLSHDWPRSIYHYGNKKQLLKTKSFFRQEVENNTLGSPAASELLEHLKPTYWFSAHLHVKFAALMQHQAKDKGQTARATKFLALDKCLPHRDFLQILEIEHDPSAPDYLEYDIEWLTILRATDDLINVTGRLWNMPENNGLHARWDYSATEEGMKEVLEKLNHDLKVPCNFSVTAACYDPSKPQTQMQLIHRINPQTTEFCAQLGIIDINVRLQKSKEEHHVCGEYEEQDDVESNDSGEDQSEYNTDTSALSSINPDEIMLDEEEDEDSIVSAHSGMNTPSVEPSDQASEFSASFSDVRILPGSMIVSSDDTVDSTIDREGKPGGTVESGNGEDLTKVPLKRLSDEHEPEQRKKIKRRNQAIYAAVDDDDDDAA [DBR1] | -0.212 | -0.0568 | 1.33 | 3.28 | 54 | 55.1 |
